Results published in patent CN115746133A (BOAOXIN BIOTECHNOLOGY NANJING CO LTD, dated 2023).

Tests used:
[1] = biological target: T1, 人CD47 (表面过表达人CD47的293F细胞) (human, UniProt Q08722 19-323); assay: flow cytometry on 293F cells overexpressing human CD47
T1 construct: whole, on cells; also called 表面过表达人CD47的稳定细胞系293F

[2] = biological target: T2, 重组人CD47-his蛋白 (ACRO biosystems, cat#CD7-H5227) (human, UniProt Q08722 19-139, biotin-labelled in the ELISA assays (site not stated)); assay: SPR (Biacore T200), antibody captured by goat anti-mouse IgG on a CM5 chip, CD47-his as analyte
T2 construct: Bought protein; also called 人CD47蛋白; 人CD47-生物素; not shown: his tag
T2 sequence (Q08722 19-139 limits assumed): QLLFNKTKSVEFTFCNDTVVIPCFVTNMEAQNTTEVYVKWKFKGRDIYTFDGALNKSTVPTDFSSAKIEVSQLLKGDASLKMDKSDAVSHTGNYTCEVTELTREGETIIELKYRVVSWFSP

T1 sequence (Q08722 19-323): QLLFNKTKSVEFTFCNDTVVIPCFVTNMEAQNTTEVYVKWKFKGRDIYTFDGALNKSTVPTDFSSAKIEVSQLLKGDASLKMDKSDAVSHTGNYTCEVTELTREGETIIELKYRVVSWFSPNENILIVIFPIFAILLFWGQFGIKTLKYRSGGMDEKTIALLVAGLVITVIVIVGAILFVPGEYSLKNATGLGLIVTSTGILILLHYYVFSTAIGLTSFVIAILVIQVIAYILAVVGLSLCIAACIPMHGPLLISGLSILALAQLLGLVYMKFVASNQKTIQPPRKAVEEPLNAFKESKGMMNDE

B1: 小鼠抗人CD47单克隆抗体1H10 (antibody, V domains shown)
VH: EVQLQQSGAELVRSGASVTLSCTASGFKIKDYYMNWVKQRPEQGLEWIGWIGPENGDTENGPKFQDKATMTANTSSNTAFLQLSSLTPEDTAFYYCNAGGRGGFPYWGQGTQVTVST
VL: DILLTQTPLSLPVSLGDQASFSCRSSQDIVHINGKTYLEWYLQKPGQSPKLLIYRVSNRFSGVPDRFSGSGSGTDFTLKISRVEAEDLGVYYCFQGSHVPRTFGGGTKLEIK
notes: also called 本发明的抗体1H10; 本发明的单克隆抗体1H10
Question: Does B1 bind [1]?
Answer: Result: binds

Question: Does B1 bind [2]?
Answer: Result: binds
